The target of assay [1] is Guanylyl cyclase-A (GC-A), human (human) (UniProt P16066).
Assay [2] shares this target. Description: radioligand binding; whole GC-A-expressing QBIHEK293A cells; 50 pmol/L 125I-ANP with increasing concentrations of compound #20; DMEM with 1% BSA; 4°C, 1 h.

Chain of UniProt P16066 (P16066 33-473): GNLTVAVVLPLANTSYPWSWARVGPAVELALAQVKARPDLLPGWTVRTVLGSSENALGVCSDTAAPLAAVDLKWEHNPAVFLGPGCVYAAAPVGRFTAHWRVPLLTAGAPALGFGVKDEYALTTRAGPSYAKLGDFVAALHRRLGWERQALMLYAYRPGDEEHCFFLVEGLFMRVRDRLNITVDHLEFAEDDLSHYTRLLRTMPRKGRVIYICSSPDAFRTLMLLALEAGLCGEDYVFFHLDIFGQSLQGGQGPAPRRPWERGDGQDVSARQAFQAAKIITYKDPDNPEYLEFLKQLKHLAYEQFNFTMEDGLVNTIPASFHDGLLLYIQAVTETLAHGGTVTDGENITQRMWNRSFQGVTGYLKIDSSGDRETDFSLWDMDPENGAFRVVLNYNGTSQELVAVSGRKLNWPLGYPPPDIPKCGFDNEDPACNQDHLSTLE

In assay [1], Brain natriuretic peptide (BNP) gave a cGMP production (AlphaScreen) in GC-A-expressing QBIHEK293A cells, concentration-response of human BNP without compound: EC50 of 1 nM. In turn, ^125I-ANP (peptide) returned an increase of binding by increasing concentrations of compound #20 in assay [2] of 71%.

Values taken from publication PMC10952227.
